Series [1] has as its target T1, CsrA (Vibrio cholerae, UniProt Q9KUH3 1-65). As to the kind of experiment: EMSA; 1 nM RNA, 640 nM CsrA; also no binding when mixed with CsrB-right. The note with it: protein: recombinant; tags: N-terminal 6xHis removed by TEV protease; chain copies: 2; label: 3' biotin; hairpin (mfold).
Series [2] concerns the target T1, CsrA. Nature of the series: EMSA; 1 nM RNA. Conditions: protein: recombinant; tags: N-terminal 6xHis removed by TEV protease; chain copies: 2; label: 5' biotin; partly folded, stem-loops predicted by mfold.
Series [3] concerns the target T1, CsrA. As to the kind of experiment: EMSA; 1 nM RNA, 640 nM CsrA; also no binding when mixed with CsrB-left. Conditions: protein: recombinant; tags: N-terminal 6xHis removed by TEV protease; chain copies: 2; label: 3' biotin; hairpin (mfold).
Series [4] concerns the target T1, CsrA. Nature of the series: EMSA; 0.1 nM RNA, 0-640 nM CsrA (Fig 3B); 1 nM RNA in Fig 3C. The note with it: protein: recombinant; tags: N-terminal 6xHis removed by TEV protease; chain copies: 2; label: 3' biotin; two adjacent hairpins (mfold).
Series [5] addresses T1, CsrA. Nature of the series: EMSA; 1 nM RNA, 640 nM CsrA. The note with it: protein: recombinant; tags: N-terminal 6xHis removed by TEV protease; chain copies: 2; label: 3' biotin; two adjacent hairpins (mfold).

T1 sequence (Q9KUH3 whole entry): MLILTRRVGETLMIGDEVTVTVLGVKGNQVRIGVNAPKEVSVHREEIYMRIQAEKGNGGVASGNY

Consider UUAGAUGCAGGGAGCACCUUU (structured_RNA) [CsrB-left], for which the binding result in series [1] is on record as “no binding”.

B1: toxR 5'UTR (ssRNA)
RNA: GCAUUUUUAUCAAAGAAGAUAAAAAAACCAGUAAAGUCUGAGUGUUGGGACAGGGAGAUACUGGGACAUUAGAUGUUCGGAUUAGGACACAACUCAAAAGAGAUAUCGAUG
For B1, the binding result in series [2] is “binds”. Regarding UUUUAGUAGCUGGAAUGCUGCGA (structured_RNA) [CsrB-right], in series [3], the binding result was “no binding”.

As to UUAGAUGCAGGGAGCACCUUUUAGUAGCUGGAAUGCUGCGA (structured_RNA) [CsrB oligo], the binding result in series [4] is listed as “binds”. UUAGAUGCAUAUAGCACCUUUUAGUAGCUGGAAUGCUGCGA (structured_RNA) [mut-left]: the binding result in series [5] is “no binding”. UUAGAUGCAUAUAGCACCUUUUAGUAGCUAUAAUGCUGCGA (structured_RNA) [CsrB-mut (oligo-mut)]: the binding result in series [5] is given as “no binding”.

The values are drawn from PMC11633198, “Vibrio cholerae CsrA controls ToxR levels by increasing the stability and translation of toxR mRNA”.
